Measured values published in US20260250404A1 (Genmab, published 2026).
Where a chain is given by its changes, count along the chain named. Names and notes keep the numbering of the source.

Tests used:
[1] = target: cynomolgus monkey PD-1 on transfected CHO-S cells (cynomolgus monkey, UniProt B0LAJ3 25-288); test: flow cytometry on CHO-S cells transiently transfected with cynomolgus monkey PD-1, PE goat anti-human IgG F(ab')2, gMFI (PE)
[2] = target: T1, human FcγRIa on the cell surface (transfected CHO-S cells, M0/M1 macrophages, hMDM, FcγRI effector reporter … (human, UniProt P12314 16-374)); test: flow cytometry on CHO-S cells transiently expressing human FcγRIa, PE goat anti-human IgG F(ab')2, % PE+ cells
T1 construct: whole, on cells; also called CD64
T1 sequence (P12314 16-374): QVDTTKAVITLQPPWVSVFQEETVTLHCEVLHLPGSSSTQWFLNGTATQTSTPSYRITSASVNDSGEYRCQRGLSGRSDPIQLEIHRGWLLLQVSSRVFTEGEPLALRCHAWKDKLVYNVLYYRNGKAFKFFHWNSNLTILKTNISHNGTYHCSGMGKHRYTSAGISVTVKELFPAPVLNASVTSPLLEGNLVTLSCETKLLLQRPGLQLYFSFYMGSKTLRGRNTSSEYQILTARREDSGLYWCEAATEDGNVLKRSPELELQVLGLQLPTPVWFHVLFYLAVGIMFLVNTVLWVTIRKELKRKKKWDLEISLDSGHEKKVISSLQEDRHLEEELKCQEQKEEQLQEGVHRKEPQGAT

[3] = target: T2, recombinant His-tagged human FcγRIIIa, 176-Phe [F] / F158 variant (human, UniProt P08637 17-208); test: SPR (Biacore 8K), His-tagged FcγR captured on anti-His chip, antibody injected, binding response (RU), n=3
T2 construct: also called FcγRIIIa-F; FcγRIIIa-F158
T2 sequence (P08637 17-208 limits assumed, change not shown): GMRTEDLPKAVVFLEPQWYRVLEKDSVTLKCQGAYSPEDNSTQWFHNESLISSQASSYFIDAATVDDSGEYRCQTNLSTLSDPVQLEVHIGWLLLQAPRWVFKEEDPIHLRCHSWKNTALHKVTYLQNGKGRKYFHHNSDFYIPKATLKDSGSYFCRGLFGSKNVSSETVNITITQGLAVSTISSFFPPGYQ

[4] = target: T3, recombinant His-tagged human FcγRIIIa, 176-Val [V] / V158 variant (human, UniProt P08637 17-208); test: as above
T3 construct: also called FcγRIIIa-V; FcγRIIIa-V158
T3 sequence (P08637 other isoform, or with tags, fused parts or gaps mutant limits assumed): as the sequence (P08637 17-208 limits assumed, change not shown) above, with F160V counted along it

[5] = target: T4, human CD27 on the cell surface (T cells, transfected HEK293F cells, Daudi cells, NFκB-luc2/CD27 Jurkat cells) (human, UniProt P26842 20-240); test: flow cytometry on HEK293F cells transfected with human CD27, PE-labeled goat anti-human IgG, median MFI PE
T4 construct: Full length human CD27, endogenous or transfected; also called TNFRSF7

[6] = target: human CD27-A59T variant on transfected HEK293F cells (human, UniProt P26842 20-260); test: flow cytometry on HEK293F cells transfected with human CD27-A59T, PE-labeled goat anti-human IgG, median MFI PE
[7] = target: T5, cynomolgus monkey CD27 on the cell surface (T cells, transfected HEK293F cells) (cynomolgus monkey, UniProt P26842 20-260 (human entry)); test: flow cytometry on T cells in cynomolgus monkey PBMC (endogenous CD27), PE-labeled goat anti-human IgG, median MFI PE
T5 construct: also called Cyno CD27
T5 chain: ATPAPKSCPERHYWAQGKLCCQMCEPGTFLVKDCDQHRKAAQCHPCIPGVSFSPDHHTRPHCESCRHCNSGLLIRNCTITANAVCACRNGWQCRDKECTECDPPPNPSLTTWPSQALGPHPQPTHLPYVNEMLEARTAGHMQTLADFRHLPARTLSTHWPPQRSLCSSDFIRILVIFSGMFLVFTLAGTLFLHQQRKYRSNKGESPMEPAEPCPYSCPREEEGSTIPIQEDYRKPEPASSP

[8] = target: T5, cynomolgus monkey CD27 on the cell …; test: flow cytometry on HEK293F cells transfected with cynomolgus monkey CD27, PE-labeled goat anti-human IgG, median MFI PE
[9] = target: T4, human CD27 on the cell surface (T …); test: flow cytometry on T cells in human PBMC (endogenous CD27), PE-labeled goat anti-human IgG, median MFI PE
[10] = target: T6, recombinant cynomolgus monkey CD27-Fc fusion protein (R&D systems, Cat #9904-CD-100) (cynomolgus monkey, UniProt P26842 21-192 (human entry), limits assumed); test: BLI (Octet HTX); cyno CD27-Fc on AR2G sensor, antibody monovalent for CD27 in solution; 1:1 model
T6 construct: Bought protein; also called Cyno CD27-Fc; not shown: Fc part of the fusion; not described
T6 chain: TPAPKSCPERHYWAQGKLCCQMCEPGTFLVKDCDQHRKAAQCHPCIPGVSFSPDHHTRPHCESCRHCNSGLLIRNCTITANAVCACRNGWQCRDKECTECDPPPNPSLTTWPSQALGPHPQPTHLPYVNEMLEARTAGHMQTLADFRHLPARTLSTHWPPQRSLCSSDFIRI

[11] = target: T7, recombinant His-tagged human CD27 protein (Sino Biological, Cat #10039-H08B1) (human, UniProt P26842 20-192); test: BLI (Octet HTX); CD27-His on anti-Penta-HIS sensor, antibody monovalent for CD27 in solution; 1:1 model
T7 construct: Bought protein; also called Human CD27-His; not shown: His tag

[12] = target: T8, human complement protein C1q (from normal human serum) (human, UniProt P02745 23-245; P02746 28-253; P02747 29-245); test: flow cytometry, C1q (20% normal human serum) binding to antibody bound on human T cells, FITC anti-C1q
T8 construct: Native C1q supplied as 20% normal human serum
T8 sequence (P02745 23-245, chain 1 of 3): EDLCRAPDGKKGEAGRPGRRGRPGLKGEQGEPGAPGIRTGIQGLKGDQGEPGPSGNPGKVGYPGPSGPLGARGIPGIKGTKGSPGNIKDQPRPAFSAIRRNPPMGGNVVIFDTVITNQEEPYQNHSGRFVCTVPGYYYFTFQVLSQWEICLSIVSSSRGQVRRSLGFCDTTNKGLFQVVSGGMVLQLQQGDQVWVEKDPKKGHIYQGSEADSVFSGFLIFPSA
T8 sequence (P02746 28-253, chain 2 of 3): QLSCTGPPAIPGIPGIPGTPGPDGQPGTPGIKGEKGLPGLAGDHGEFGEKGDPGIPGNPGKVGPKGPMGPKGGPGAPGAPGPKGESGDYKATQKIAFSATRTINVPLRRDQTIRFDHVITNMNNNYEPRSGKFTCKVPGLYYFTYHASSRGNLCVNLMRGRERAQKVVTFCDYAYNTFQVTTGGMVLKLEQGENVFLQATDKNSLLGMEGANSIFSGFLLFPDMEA
T8 sequence (P02747 29-245, chain 3 of 3): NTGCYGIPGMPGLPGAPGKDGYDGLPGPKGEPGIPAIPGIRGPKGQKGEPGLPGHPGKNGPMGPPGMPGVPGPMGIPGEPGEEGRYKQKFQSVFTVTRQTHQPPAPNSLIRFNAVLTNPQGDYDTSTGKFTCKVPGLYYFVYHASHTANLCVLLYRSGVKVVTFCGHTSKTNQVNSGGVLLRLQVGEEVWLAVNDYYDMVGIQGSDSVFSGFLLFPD

[13] = target: T8, human complement protein C1q (from …); test: flow cytometry, C1q (20% normal human serum) binding to antibody bound on human T cells, FITC anti-C1q, median MFI FITC
[14] = target: T9, recombinant human neonatal Fc receptor FcRn (SinoBiological CT071-H27H-B) (human, UniProt P55899 24-297; P61769 21-119); test: SPR (Biacore 8K) at pH 6.0; FcRn captured by anti-His, antibody as analyte; average of three measurements; pH 6.0
T9 construct: Composition of the bought protein is not described

[15] = target: T10, recombinant His-tagged human FcγRIIb (human, UniProt P31994 43-217, limits assumed); test: SPR (Biacore 8K), His-tagged FcγR captured on anti-His chip, antibody injected, binding response (RU), n=3
T10 sequence (looked up): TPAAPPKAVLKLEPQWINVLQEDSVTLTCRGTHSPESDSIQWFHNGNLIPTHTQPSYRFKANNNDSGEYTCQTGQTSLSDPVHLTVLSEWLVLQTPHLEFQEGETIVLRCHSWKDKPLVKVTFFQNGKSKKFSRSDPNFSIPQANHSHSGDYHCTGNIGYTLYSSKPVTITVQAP

[16] = target: T11, recombinant His-tagged human FcγRIIa, 167-Arg [R] / R131 variant (human, UniProt P12318 34-218, limits assumed); test: as above
T11 construct: catalogue numbers differ; also called FcγRIIa-R; FcγRIIa-R131
T11 sequence (looked up): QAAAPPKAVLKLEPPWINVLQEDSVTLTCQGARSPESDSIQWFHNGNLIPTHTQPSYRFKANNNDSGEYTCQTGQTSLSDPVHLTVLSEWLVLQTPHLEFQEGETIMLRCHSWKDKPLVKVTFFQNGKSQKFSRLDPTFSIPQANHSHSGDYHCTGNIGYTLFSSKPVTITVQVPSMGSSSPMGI

[17] = target: T12, recombinant His-tagged human FcγRIIa, 167-His [H] / H131 variant (human, UniProt P12318 34-218, limits assumed); test: as above
T12 construct: catalogue numbers differ; also called FcγRIIa-H; FcγRIIa-H131
T12 sequence (looked up): T11 sequence (looked up) with R134H

Sequence of cynomolgus monkey PD-1 on transfected CHO-S cells (B0LAJ3 entry or part of it limits assumed): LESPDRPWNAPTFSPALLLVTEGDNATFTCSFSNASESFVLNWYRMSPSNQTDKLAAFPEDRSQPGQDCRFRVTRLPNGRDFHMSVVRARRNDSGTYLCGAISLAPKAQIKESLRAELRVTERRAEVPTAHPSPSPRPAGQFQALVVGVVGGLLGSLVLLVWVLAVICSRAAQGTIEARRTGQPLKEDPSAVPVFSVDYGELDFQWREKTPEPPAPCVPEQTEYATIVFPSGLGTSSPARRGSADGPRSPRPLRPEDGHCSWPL

B1: pembrolizumab (antibody, human IgG4 S228P, kappa)
heavy: not shown
light: EIVLTQSPATLSLSPGERATLSCRASKGVSTSGYSYLHWYQQKPGQAPRLLIYLASYLESGVPARFSGSGSGTDFTLTISSLEPEDFAVYYCQHSRDLPLTFGGGTKVEIKRTVAAPSVFIFPPSDEQLKSGTASVVCLLNNFYPREAKVQWKVDNALQSGNSQESVTEQDSKDSTYSLSSTLTLSKADYEKHKVYACEVTHQGLSSPVTKSFNRGEC
notes: also called Keytruda
EC50 (read off the curve) [1]: ~0.05 mg/L
EC50 (read off the curve) [2]: ~0.8 mg/L
binding result [3]: binds
binding result [4]: binds

B2: IgG1-CD27-A carrying F405L-L234F-L235E-D265A in the IgG Fc domain (antibody, V domains shown)
VH: QVQLMQSGSELKKPGASVKVSCRASGYTFTTYAMNWVRQAPGQGPEWMGWINTNTGNPTYAQGFTGRFVFSLDTTVTTTYLQISSLKAEDTAVYFCAREAGSFDYWGQGTLVTVSS
VL: QSALTQPASVSGSPGQSITISCTGTSSDVYYYNYVSWYQQHPGRAPKLVIYDVSNRPSGVSNRFSGSKSGNTASLTISGLRAEDEADYYCSSYTVNRVWVFGGGTKLTVL
EC50 (read off the curve) [5]: ~0.1 mg/L
EC50 (read off the curve) [6]: ~0.2 mg/L
EC50 (read off the curve) [7]: ~0.03 mg/L
EC50 (read off the curve) [8]: ~0.06 mg/L
EC50 (read off the curve) [9]: ~0.04 mg/L

B3: IgG1-CD27-A as bispecific antibody with one CD27-specific Fab-arm and one non-binding Fab-arm (bispecific antibody)
chain 1: B2 VH
chain 2: B2 VL
chain 3: QVQLVQSGAEVKKPGASVKVSCQASGYRFSNFVIHWVRQAPGQRFEWMGWINPYNGNKEFSAKFQDRVTFTADTSANTAYMELRSLRSADTAVYYCARVGPYSWDDSPQDNYYMDVWGKGTTVIVSSASTKGPSVFPLAPSSKSTSGGTAALGCLVKDYFPEPVTVSWNSGALTSGVHTFPAVLQSSGLYSLSSVVTVPSSSLGTQTYICNVNHKPSNTKVDKRVEPKSCDKTHTCPPCPAPEFEGGPSVFLFPPKPKDTLMISRTPEVTCVVVAVSHEDPEVKFNWYVDGVEVHNAKTKPREEQYNSTYRVVSVLTVLHQDWLNGKEYKCKVSNKALPAPIEKTISKAKGQPREPQVYTLPPSREEMTKNQVSLTCLVKGFYPSDIAVEWESNGQPENNYKTTPPVLDSDGSFFLYSRLTVDKSRWQQGNVFSCSVMHEALHNHYTQKSLSLSPG
chain 4: EIVLTQSPGTLSLSPGERATFSCRSSHSIRSRRVAWYQHKPGQAPRLVIHGVSNRASGISDRFSGSGSGTDFTLTITRVEPEDFALYYCQVYGASSYTFGQGTKLERKRTVAAPSVFIFPPSDEQLKSGTASVVCLLNNFYPREAKVQWKVDNALQSGNSQESVTEQDSKDSTYSLSSTLTLSKADYEKHKVYACEVTHQGLSSPVTKSFNRGEC
Kd [10]: 0.12 µM
koff [10]: 0.02 s⁻¹
kon [10]: 170000 M⁻¹ s⁻¹
Kd [11]: 0.13 µM
koff [11]: 0.018 s⁻¹
kon [11]: 130000 M⁻¹ s⁻¹

B4: IgG1-CD27-A (wild-type IgG1 Fc) (antibody)
heavy: not shown
light: QSALTQPASVSGSPGQSITISCTGTSSDVYYYNYVSWYQQHPGRAPKLVIYDVSNRPSGVSNRFSGSKSGNTASLTISGLRAEDEADYYCSSYTVNRVWVFGGGTKLTVLGQPKAAPSVTLFPPSSEELQANKATLVCLISDFYPGAVTVAWKADSSPVKAGVETTTPSKQSNNKYAASSYLSLTPEQWKSHRSYSCQVTHEGSTVEKTVAPTECS
notes: also called WT IgG1-CD27-A; IgG-CD27-A; copies: 2 + 2
binding result [12]: no binding (tested: 15 µg/mL)

B5: IgG1-CD27-A-E345R (antibody)
heavy: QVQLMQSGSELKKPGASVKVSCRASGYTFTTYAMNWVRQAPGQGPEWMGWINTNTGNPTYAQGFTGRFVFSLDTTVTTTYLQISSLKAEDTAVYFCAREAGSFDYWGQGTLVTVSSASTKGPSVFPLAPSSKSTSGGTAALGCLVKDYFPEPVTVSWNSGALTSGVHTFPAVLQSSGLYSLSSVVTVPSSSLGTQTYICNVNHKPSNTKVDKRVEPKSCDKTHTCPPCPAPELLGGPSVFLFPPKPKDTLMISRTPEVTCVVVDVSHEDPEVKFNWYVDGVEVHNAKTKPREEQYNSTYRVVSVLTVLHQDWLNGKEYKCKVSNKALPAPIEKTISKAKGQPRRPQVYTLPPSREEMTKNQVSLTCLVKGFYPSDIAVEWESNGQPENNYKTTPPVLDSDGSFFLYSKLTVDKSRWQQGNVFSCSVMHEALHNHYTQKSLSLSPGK
light: B4 light
notes: Human IgG1 with E345R (Eu numbering); also called IgG-CD27-A-E345R; copies: 2 + 2
binding result [13]: binds

B6: IgG1-CD27-A-E430G (antibody)
heavy: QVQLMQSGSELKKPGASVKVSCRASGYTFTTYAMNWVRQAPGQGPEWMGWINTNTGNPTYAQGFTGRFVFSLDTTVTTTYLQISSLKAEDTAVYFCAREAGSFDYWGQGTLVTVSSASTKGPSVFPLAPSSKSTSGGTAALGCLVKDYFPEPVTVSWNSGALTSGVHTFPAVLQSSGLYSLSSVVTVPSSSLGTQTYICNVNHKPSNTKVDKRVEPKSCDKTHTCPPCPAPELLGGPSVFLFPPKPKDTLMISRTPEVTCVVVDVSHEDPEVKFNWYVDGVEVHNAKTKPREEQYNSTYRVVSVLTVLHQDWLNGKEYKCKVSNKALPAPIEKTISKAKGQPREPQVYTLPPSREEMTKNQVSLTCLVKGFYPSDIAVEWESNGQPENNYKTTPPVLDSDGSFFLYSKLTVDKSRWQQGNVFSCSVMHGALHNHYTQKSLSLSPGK
light: B4 light
notes: Human IgG1 with E430G (Eu numbering); copies: 2 + 2
EC50 (read off the curve) [13]: ~0.03 mg/L

B7: dostarlimab (antibody)
chain 1: not shown
chain 2: DIQLTQSPSFLSAYVGDRVTITCKASQDVGTAVAWYQQKPGKAPKLLIYWASTLHTGVPSRFSGSGSGTEFTLTISSLQPEDFATYYCQHYSSYPWTFGQGTKLEIKRTVAAPSVFIFPPSDEQLKSGTASVVCLLNNFYPREAKVQWKVDNALQSGNSQESVTEQDSKDSTYSLSSTLTLSKADYEKHKVYACEVTHQGLSSPVTKSFNRGEC
EC50 (read off the curve) [2]: ~0.2 mg/L

B8: nivolumab (antibody, human IgG4 S228P, kappa)
heavy: not shown
light: not shown
notes: also called Opdivo
Kd [14]: 0.133 µM
koff [14]: 0.0689 s⁻¹
kon [14]: 518000 M⁻¹ s⁻¹
EC50 (read off the curve) [2]: ~0.2 mg/L
binding result [15]: binds
binding result [16]: binds
binding result [17]: binds
binding result [4]: binds
